In patent EP3515493A1 (dated 2019):

B1: Lym-1 (antibody, V domains shown)
VH: QLKESGPGLVAPSQSLSITCTISGFSLTSYGVHWVRQPPGKGLEWLVVIWSDGSTTYNSALKSRLSISKDNSKSQVFLKMNSLQTDDTAIYYCASHYGSTLAFASWGHGTLVTVSA
VL: DIQMTQSPASLSASVGETVTIICRASVNIYSYLAWYQQKQGKSPQLLVYNAKILAEGVPSRFSGSGSGTQFSLKINSLQPEDFGSYYCQHHYGTFTFGSGTKLEIK
B2: Lym-2 (antibody, V domains shown)
VH: EVQLEESGGGLVQPGGSMKLSCVASGFTFSNYWMNWVRQSPEKGLEWVAEIRFKSHNYATHFAESVKGRFTISRDDSKSSVYLQMNNLRAEDTGIYYCTRRIGNSDYDWWYFDVWGAGTSVTVSS
VL: DIVMTQSHKFMSTSVGDRVSVTCKASQNVGNNVAWYQQKPGQSPKVLIYSASYRYSGVPDRFTGSGSGTDFTLTISNVQSEDLAEYFCQQYNTYPFTFGSGTKLEIK

What was measured:
HLA-DR, human [1] = target: HLA-DR, human (human); test: Scatchard analysis, normal B cells (Table 11: tonsil lymphocytes) compared with Raji tumor cells
HLA-DR, human [2] = target: HLA-DR, human (human); test: Scatchard plot analysis, avidity constant on tonsil lymphocytes
HLA-DR, human [3] = target: HLA-DR, human (human); test: Scatchard plot analysis, avidity constant on tumor cell line (Raji cells)
HLA-DR, human [4] = target: HLA-DR, human (human); test: Scatchard analysis, normal B cells (Table 11: tonsil lymphocytes) compared with ARH-77 tumor cells
HLA-DR, human [5] = target: HLA-DR, human (human); test: Scatchard plot analysis, avidity constant on tumor cell line (ARH-77 myeloma cells)

Binder	fold decrease in binding affinity (normal B cells against tumor cells) (HLA-DR, human [1]) [fold]	Ka (HLA-DR, human [2]) [M⁻¹]	Ka (HLA-DR, human [3]) [M⁻¹]	fold decrease in binding affinity (normal B cells against tumor cells) (HLA-DR, human [4]) [fold]	Ka (HLA-DR, human [5]) [M⁻¹]
B1	4	8.8e+07	4.02e+08	–	–
B2	–	1.23e+08	–	2	2.33e+08
